In paper PMC7144946:

T1: Yap1 bZIP (Aspergillus fumigatus, UniProt Q4WMH0 135-234)
T1 sequence: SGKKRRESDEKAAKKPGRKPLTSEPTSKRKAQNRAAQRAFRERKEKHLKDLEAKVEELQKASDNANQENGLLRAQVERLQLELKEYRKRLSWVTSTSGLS

B1: cccA-369 (dsDNA)
DNA 1: AAATCCACCAATCAACGCCTCCGTGATTGTCAGCAAT
DNA 2: ATTGCTGACAATCACGGAGGCGTTGATTGGTGGATTT
B2: cyp51A-293 (dsDNA)
DNA 1: GCTGAGCCGAATGAAAGTTGCCTAATTACTAAGGTGT
DNA 2: ACACCTTAGTAATTAGGCAACTTTCATTCGGCTCAGC

Tests used:
Experiment in all cases: SPR
[1] = biological target: A. fumigatus CCAAT-binding complex (CBC) consisting of HapB(230–299), HapC(40–137) and HapE(47–164) (Aspergillus fumigatus)
Yap1 bZIP = biological target: T1, Yap1 bZIP
HapX dCBC-BD = HapX dCBC-BD (Aspergillus fumigatus, UniProt Q4WER3 59-158)

Molecule | apparent KD with cccA-369 promoter DNA (HapX on preformed CBC:DNA) [1] [nM] | apparent KD with cox6 promoter DNA (HapX on preformed CBC:DNA) [1] [nM] | apparent KD with hemH promoter DNA (HapX on preformed CBC:DNA) [1] [nM] | Kd (Yap1 bZIP) [nM] | binding signal (HapX dCBC-BD) [fold increase vs HapX]
A. fumigatus HapX(24–158) (from UniProt Q4WER3 24-158) (domain or fragment) | 0.4 | 3600 | 121 |  | 
B1 |  |  |  | 50 | 3
B2 |  |  |  | 13 | 
